Laboratory results taken from publication PMC7272049 (2020).
Each block holds one binder with its values, some of them ahead of it.

Experiments:
Assay in all cases: FACS
[1] = biological target: mPD-L1 R125A mCherry (mouse, UniProt Q9EP73 19-290, R125A)
[2] = biological target: mPD-L1 Y56A mCherry (mouse, UniProt Q9EP73 19-290, Y56A)
[3] = biological target: mPD-L1 K124A mCherry (mouse, UniProt Q9EP73 19-290, K124A)
[4] = biological target: mPD-L1 G119D mCherry (mouse, UniProt Q9EP73 19-290, G119D)
[5] = biological target: mPD-L1 D49R mCherry (mouse, UniProt Q9EP73 19-290, D49R)
[6] = biological target: mPD-L1 G120D mCherry (mouse, UniProt Q9EP73 19-290, G120D)
[7] = biological target: WT mPD-L1 mCherry (mouse, UniProt Q9EP73 19-290)
[8] = biological target: D28R (Mus musculus)
[9] = biological target: mPD-L1 Y123R mCherry (mouse, UniProt Q9EP73 19-290, Y123R)
[10] = biological target: mPD-L1 D122A mCherry (mouse, UniProt Q9EP73 19-290, D122A)
Sequence of mPD-L1 D122A mCherry (Q9EP73 19-290 D122A): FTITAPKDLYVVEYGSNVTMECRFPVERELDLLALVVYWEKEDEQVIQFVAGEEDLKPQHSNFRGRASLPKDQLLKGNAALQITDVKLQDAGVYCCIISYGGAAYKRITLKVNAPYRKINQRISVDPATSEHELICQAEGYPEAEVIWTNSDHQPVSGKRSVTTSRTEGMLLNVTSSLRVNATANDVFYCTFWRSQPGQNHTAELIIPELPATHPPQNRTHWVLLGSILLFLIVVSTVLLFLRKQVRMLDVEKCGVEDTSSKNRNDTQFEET

Sequence of D28R (Mus musculus) (chain, as listed by the source D28R): as the sequence (Q9EP73 19-290 D122A) above, with D8R, A104D counted along it
Sequence of mPD-L1 K124A mCherry (Q9EP73 19-290 K124A): as the sequence (Q9EP73 19-290 D122A) above, with A104D, K106A counted along it
Sequence of mPD-L1 R125A mCherry (Q9EP73 19-290 R125A): as the sequence (Q9EP73 19-290 D122A) above, with A104D, R107A counted along it
Sequence of mPD-L1 G119D mCherry (Q9EP73 19-290 G119D): as the sequence (Q9EP73 19-290 D122A) above, with G101D, A104D counted along it
Sequence of mPD-L1 Y56A mCherry (Q9EP73 19-290 Y56A): as the sequence (Q9EP73 19-290 D122A) above, with Y38A, A104D counted along it
Sequence of mPD-L1 D49R mCherry (Q9EP73 19-290 D49R): as the sequence (Q9EP73 19-290 D122A) above, with D31R, A104D counted along it
Sequence of mPD-L1 Y123R mCherry (Q9EP73 19-290 Y123R): as the sequence (Q9EP73 19-290 D122A) above, with A104D, Y105R counted along it
Sequence of WT mPD-L1 mCherry (Q9EP73 19-290): as the sequence (Q9EP73 19-290 D122A) above, with A104D counted along it
Sequence of mPD-L1 G120D mCherry (Q9EP73 19-290 G120D): as the sequence (Q9EP73 19-290 D122A) above, with G102D, A104D counted along it

EC50 [1]: 38.8 nM
EC50 [2]: 1.9 nM
EC50 [3]: 42.9 nM
EC50 [4]: 2 nM
EC50 [5]: 1.8 nM
EC50 [6]: 2.5 nM
EC50 [7]: 1.8 nM
B1: mPD-1 mIgG2a (Fc fusion)
chain: LEVPNGPWRSLTFYPAWLTVSEGANATFTCSLSNWSEDLMLNWNRLSPSNQTEKQAAFCNGLSQPVQDARFQIIQLPNRHDFHMNILDTRRNDSGIYLCGAISLHPKAKIEESPGAELVVTERILETSTRYPSPSPKPEGRFQGM

EC50 [8]: 2.6 nM
B2: mPD-1 mIgG2a (Fc fusion)
chain: LEVPNGPWRSLTFYPAWLTVSEGANATFTCSLSNWSEDLMLNWNRLSPSNQTEKQAAFCNGLSQPVQDARFQIIQLPNRHDFHMNILDTRRNDSGIYLCGAISLHPKAKIEESPGAELVVTERILETSTRYPSPSPKPEGRFQGM
modifications: Cell-surface full-length mPD-L1 with a C-terminal mCherry (left out); limits are not given, so the mature chain 19-290 is used. The paper prints D28R, but residue 28 of Q9EP73 is Tyr. The only nearby Asp is D26, which lies at the PD-1 interface, so D28R is read as D26R. The paper's other PD-L1 numbers match the precursor numbering.

EC50 [1]: 20.2 nM
EC50 [3]: 54.9 nM
EC50 [9]: 7.7 nM
EC50 [10]: 68.2 nM
B3: mB7-1 mIgG2a (Fc fusion)
chain: VDEQLSKSVKDKVLLPCRYNSPHEDESEDRIYWQKHDKVVLSVIAGKLKVWPEYKNRTLYDNTTYSLIILGLVLSDRGTYSCVVQKKERGTYEVKHLALVKLSIKADFSTPNITESGNPSADTKRITCFASGGFPKPRFSWLENGRELPGINTTISQDPESELYTISSQLDFNTTRNHTIKCLIKYGDAHVSEDFTWEKPPEDPPDSKN

EC50 [8]: 18.8 nM
B4: mB7-1 mIgG2a (Fc fusion)
chain: VDEQLSKSVKDKVLLPCRYNSPHEDESEDRIYWQKHDKVVLSVIAGKLKVWPEYKNRTLYDNTTYSLIILGLVLSDRGTYSCVVQKKERGTYEVKHLALVKLSIKADFSTPNITESGNPSADTKRITCFASGGFPKPRFSWLENGRELPGINTTISQDPESELYTISSQLDFNTTRNHTIKCLIKYGDAHVSEDFTWEKPPEDPPDSKN
modifications: Cell-surface full-length mPD-L1 with a C-terminal mCherry (left out); limits are not given, so the mature chain 19-290 is used. The paper prints D28R, but residue 28 of Q9EP73 is Tyr. The only nearby Asp is D26, which lies at the PD-1 interface, so D28R is read as D26R. The paper's other PD-L1 numbers match the precursor numbering.
